Laboratory results: patent publication US8951758B2, “GH61 glycoside hydrolase protein variants and cofactors that enhance GH61 activity” (Codexis, Inc., priority 2011, dated 2015)
Each block holds one molecule with its values, some of them ahead of it.

Experiments:
[1] = tested on: acid-pretreated corn stover; assay: Shake flask saccharification with CF-416 whole broth enzymes with 0 or 50 μM CuSO4 at pH 5.0 or pH 6.0 (FIG. 4); type: biochemical; conditions: 50 μM vs 0 CuSO4; for increase in glucose yields: CF-416 whole broth enzymes 0.81%, 72 hours, 55° C.
Description: This Example describes experiments designed to determine the effects of added copper in saccharification reactions. The saccharification reactions were run in 30g shake flasks (250 mL flasks) using 82g/kg glucan of acid-pretreated corn stover and whole broth enzymes produced by M. thermophila strain CF-416 (produced using standard methods known in the art) at a 0.81% total enzyme load with respect to glucan. […] A pH trim was also performed using 2M NaOH at time intervals of 1, 4, 7, 22, 24 29, 46, 52, 70, 75 and 96 hrs, to maintain the pH at the desired value of pH 5.0 or pH 6.0. Samples were removed at 72 hours and the total amount of glucose in the reaction mixture was determined using standard HPLC methods and equipment as known in the art.

[2] = tested on: AVICEL® PH microcrystalline cellulose; assay: GH61a Variant 1 plus beta-glucosidase with reducing agents or pretreatment filtrate on AVICEL (FIG. 5A); type: biochemical; conditions: 0.3% GH61a Variant 1, 0.08% BGL, 30 μM CuSO4, 48 h, pH 5, 55° C.
Description: (§1) This Example provides experiments conducted to determine the effect of adding reducing agents (e.g., gallic acid and ascorbic acid) to saccharification reactions. In these experiments, enhancement of GH61 activity was tested using Variant 1 (SEQ ID NO:5) in the presence of reducing agents (specifically, ascorbic acid or gallic acid) and pretreatment filtrate, which contains various reducing agents from lignin degradation. Reactions were performed on cellulosic substrates, AVICEL® PH microcrystalline cellulose and phosphoric acid swollen cellulose (PASC), with purified M. thermophila-produced GH61 Variant 1 and beta-glucosidase at 0.3% and 0.08% respectively, with respect to substrate glucan mass, and 128 mM sodium acetate buffer (pH 5) supplemented with 30 μM CuSO4. Thus, reactions were performed with 0.3% GH61a and 0.08% BGL, where % enzyme loads are with respect to substrate glucan mass (36 g/L AVICEL® cellulose and 5 g/L PASC). Background (negative) controls were beta-glucosidase-only reactions tested in the absence of GH61a. Glucose production after 48 h incubation at pH 5, 55° C. was determined by glucose oxidase/peroxidase-based or HPLC-based glucose assay glucose assay, using methods known in the art. […] Filtrate dilutions are indicated in this Figure, where undiluted filtrate equals 72% of the total reaction volume. […]

[3] = tested on: phosphoric acid swollen cellulose (PASC); assay: GH61a Variant 1 plus beta-glucosidase with reducing agents or pretreatment filtrate on PASC (FIG. 5B); type: biochemical; conditions: 0.3% GH61a Variant 1, 0.08% BGL, 30 μM CuSO4, 48 h, pH 5, 55° C.
Description: as §1

[4] = tested on: pre-treated wheat straw; assay: Biomass assay of a cellulase mixture (GH61a, CBH1a, CBH2b, BGL) with surfactants (FIG. 6); type: biochemical; conditions: BGL at 0.3%, 0.15%, 0.08%, 55° C., 72 hours, pH 5
Description: This example illustrates the enhancement of overall saccharification yield with the addition of surfactants such as TWEEN®-20 and PEG-4000. Experiments were designed to monitor the enhancement in cellulase activity with different concentrations of TWEEN®-20 or PEG-4000 in the biomass assay. The biomass assay was performed in a total volume of 90 μL, including 10 mg of pre-treated wheat straw, 64.8 μL (72% by volume) of filtrate (or H2O for no filtrate conditions), and 11.6 μl, of a mixture of sodium acetate buffer (pH 5.0, supplemented with CuSO4), M. thermophila-produced cellobiohydrolase 1a (CBH1a), cellobiohydrolase 2b (CBH2b), beta-glucosidase (BGL), and glycoside hydrolase type 61 (GH61a). The final concentration of sodium acetate was 128 mM (with 30 μM CuSO4) and the enzyme loads of CBH1a, CBH2b, BGL and GH61a were 0.15%, 0.15%, 0.08% and 0.3% with respect to the substrate glucan mass in the biomass substrate, respectively. Water was used in place of the enzymes as a negative control. […]
Data shown are total glucose produced by a mixture of GH61a, CBH1a, CBH2b, and BGL at 0.3%, 0.15%, 0.15%, and 0.08% with respect to the substrate glucan mass in the biomass substrate, respectively. In this Figure, TWEEN®-20 concentrations are expressed as % total reaction volume.
In this Figure, PEG-4000 concentrations are expressed as % total reaction volume.

[5] = tested on: M. thermophila CF-416 whole broth cellulases; conditions: 87g/kg glucan, 0.81% enzyme load, pH 5.0, 55° C., 50 μM CuSO4, 72 hours
[6] = tested on: crystalline cellulose; assay: Saccharification of crystalline cellulose by cellulase enzymes in culture broth from M. thermophila cells with GH61a added (FIG. 1); type: biochemical; conditions: GH61a added to cellulases of M. thermophila culture broth
Description: FIG. 1 provides results of an experiment using recombinantly produced GH61a protein having the sequence shown in SEQ ID NO:2. The protein was tested for its ability to promote the activity of cellulases present in culture broth of M. thermophila.
A protein from a strain of M. thermophila having the amino acid sequence provided in SEQ ID NO:2 was previously identified as having GH61 activity. It was designated “GH61a”.

[7] = tested on: pretreated corn stover (PCS); assay: Supplementation of CF-416 whole cellulase broth with single purified enzymes, saccharification of pretreated corn stover; type: biochemical; conditions: 0.4% single enzyme added to 0.5% CF-416 whole cellulase broth base; 74 g/L glucan, pH 5.0, 55° C., 50 μM copper
Description: (§2) In this Example, M. thermophila-produced and purified GH61a, GH61p, GH61f, GH61n, CBH1a, CBH2b, AXE3, FAE, and Xyl3, were used to supplement the activity present in culture broths (i.e., “whole broth cellulase base”) of the M. thermophila strain CF-416 prepared using standard methods known in the art. The broth cellulase base was fixed to 0.5% protein and the single purified enzyme was added at 0.4% (wt added protein/wt glucan) to the saccharification reactions. The whole cellulase broth base and individual enzymes were characterized by standard BCA assays for total protein quantification.
(§3) The saccharification reactions were carried out at 74 g/L glucan load of pretreated wheat straw (PWS) or pretreated corn stover (PCS) at pH 5.0, 55° C. at 950 rpm in the presence of 50 μM copper in high throughput (HTP) 96 deep well plates. Glucose analysis was carried out by the glucose oxidase assay as described above. In each case, the fold improvement was calculated using the formula Fold Improvement=[Total Glucose Production with addition of 0.4% single enzyme to the whole cellulase broth base]/[glucose production from the 0.5% whole cellulase broth base]. In this Table, the fold improvements were ranked from 0 to 3; fold improvements less than 1.2× are indicated by “0,” fold improvements of >1.2 to <1.5 are indicated by “1,” fold improvements of ≧1.5× to <1.7× improvements are indicated by “2,” and fold improvements ≧1.7 are indicated by “3.”

[8] = tested on: pretreated wheat straw (PWS); assay: Supplementation of CF-416 whole cellulase broth with single purified enzymes, saccharification of pretreated wheat straw; type: biochemical; conditions: 0.4% single enzyme added to 0.5% CF-416 whole cellulase broth base
Description: as §2, §3

[9] = tested on: pre-treated wheat straw; assay: Biomass assay of GH61a pre-incubated with or supplemented by copper(II) (FIG. 3); type: biochemical; conditions: pre-incubated with copper(II) (CuSO4) 0 to 100 μM, 72 h, pH 5, 55° C.
Description: Purified M. thermophila-produced GH61a or S. cerevisiae supernatant containing M. thermophila-GH61a was pre-incubated with different amounts of copper(II) (CuSO4) at concentrations of 0 to 100 μM at ambient temperature for 30 min. The biomass assay was then performed in a total volume of 300 μL, in the presence of 10 mg of pre-treated wheat straw, using 261 μL of copper-treated GH61 samples, 39 μL of sodium acetate buffer (pH 5), M. thermophila-produced CBH1a, CBH2b and β-glucosidase. The final concentration of sodium acetate was 120 mM and the enzyme loads of CBHs and β-glucosidase (CBH1a and CBH2b in 1:1 ratio) were 0.01% and 0.02% with respect to substrate glucan mass in the biomass substrate, respectively. Background (negative) controls were obtained by using either water or media supernatant from cultures of S. cerevisiae cells without the GH61a gene in the plasmid. Thus, the negative controls represent activities of CBH1a, CBH2b and beta-glucosidase in the absence of GH61a. The reaction was incubated at 55° C. for 72 hours with shaking.
Some experiments were also performed without pre-incubating GH61 with copper(II), but instead, by directly adding different amounts of copper(II) (CuSO4) to the biomass assay reactions as described herein.
Biomass assays were performed with (A) S. cerevisiae-produced M. thermophila GH61a Variant 5, and (B) M. thermophila-produced wild-type GH61a. Glucose production after 72 h incubation at pH 5, 55° C. was determined by the glucose assay. The data in this Figure indicate GH61a-only activity, in which the amount of glucose produced in control reaction containing CBH and β-glucosidase was subtracted from the total amount of glucose produced in the reactions with GH61a. In this Figure, N=4; and the error bars represent ±1 standard deviation. Copper concentrations shown are with respect to the total reaction volume.

Molecule: TWEEN®-20
total glucose production in the saccharification reaction [4]: enhanced

Molecule: O=O [oxygen]
glucose yields, closed flask vs flask opened at 4 hrs and 24 hrs for fresh air [5]: not a limiting factor

B1: GH61a: Wild-type M. thermophila C1 GH61a polypeptide (SEQ ID NO:2) (protein, listed as Myceliophthora thermophila)
chain: MSKASALLAGLTGAALVAAHGHVSHIVVNGVYYRNYDPTTDWYQPNPPTVIGWTAADQDNGFVEPNSFGTPDIICHKSATPGGGHATVAAGDKINIVWTPEWPESHIGPVIDYLAACNGDCETVDKSSLRWFKIDGAGYDKAAGRWAADALRANGNSWLVQIPSDLKAGNYVLRHEIIALHGAQSPNGAQAYPQCINLRVTGGGSNLPSGVAGTSLYKATDPGILFNPYVSSPDYTVPGPALIAGAASSIAQSTSVATATGTATVPGGGGANPTATTTAATSAAPSTTLRTTTTSAAQTTAPPSGDVQTKYGQCGGNGWTGPTVCAPGSSCSVLNEWYSQCL
glucose yield [6]: improvement in glucose yield
Fold Improvement Over Whole Cellulase Broth Tested on PCS [7]: 2 (fold improvements of ≧1.5× to <1.7×)
improvement over whole cellulase broth on PWS, in words [8]: greatest benefit
Fold Improvement Over Whole Cellulase Broth Tested on PWS ([8]; 74 g/L glucan, pH 5.0, 55° C., 50 μM copper): 3 (fold improvements ≧1.7)
GH61a-only activity (glucose production) when Cu^++ is included in the reaction ([9]; listed as M. thermophila-produced GH61a): improved
GH61a-only activity (glucose production) when Cu^++ is included in the reaction ([9]; listed as wild-type GH61a): increase

B2: E104H/K167A (protein)
chain: MSKASALLAGLTGAALVAAHGHVSHIVVNGVYYRNYDPTTDWYQPNPPTVIGWTAADQDNGFVEPNSFGTPDIICHKSATPGGGHATVAAGDKINIVWTPEWPHSHIGPVIDYLAACNGDCETVDKSSLRWFKIDGAGYDKAAGRWAADALRANGNSWLVQIPSDLAAGNYVLRHEIIALHGAQSPNGAQAYPQCINLRVTGGGSNLPSGVAGTSLYKATDPGILFNPYVSSPDYTVPGPALIAGAASSIAQSTSVATATGTATVPGGGGANPTATTTAATSAAPSTTLRTTTTSAAQTTAPPSGDVQTKYGQCGGNGWTGPTVCAPGSSCSVLNEWYSQCL
GH61a-only activity (glucose production) when Cu^++ is included in the reaction [9]: increase
GH61a-only activity (glucose production) when Cu^++ is included in the reaction ([9]; listed as S. cerevisiae supernatant containing M. thermophila-GH61a): improved

Second part, the molecule after the results:

total amounts of C5 sugars produced ([1]; FIG. 4, Panel B): may cause a decrease
increase in glucose yields ([1]; saccharification pH 5.0): ~3.5%
increase in glucose yields ([1]; saccharification pH 6.0): not observed
Molecule: O=S(=O)([O-])[O-].[Cu+2] [copper(II), CuSO4]

GH61 activity in generating soluble sugars from AVICEL® cellulose [2]: improved
GH61 activity in generating soluble sugars from PASC [3]: improved
Molecule: O=C(O)c1cc(O)c(O)c(O)c1 [gallic acid]
